Data on 4 molecules can be found in paper PMC2790891.

Series [1] deals with SsoDpo1 exonuclease mutant (D231A/D318A) (Sulfolobus solfataricus P2) (UniProt P26811). Briefly: ITC.
The target is the same in series [2]. Briefly: native gel or EMSA.
For series [3], the target named is T1, SsoDpo1 exo- (B-family DNA polymerase 1) (Sulfolobus solfataricus, UniProt P26811 1-882, D231A;D318A).
T1 sequence: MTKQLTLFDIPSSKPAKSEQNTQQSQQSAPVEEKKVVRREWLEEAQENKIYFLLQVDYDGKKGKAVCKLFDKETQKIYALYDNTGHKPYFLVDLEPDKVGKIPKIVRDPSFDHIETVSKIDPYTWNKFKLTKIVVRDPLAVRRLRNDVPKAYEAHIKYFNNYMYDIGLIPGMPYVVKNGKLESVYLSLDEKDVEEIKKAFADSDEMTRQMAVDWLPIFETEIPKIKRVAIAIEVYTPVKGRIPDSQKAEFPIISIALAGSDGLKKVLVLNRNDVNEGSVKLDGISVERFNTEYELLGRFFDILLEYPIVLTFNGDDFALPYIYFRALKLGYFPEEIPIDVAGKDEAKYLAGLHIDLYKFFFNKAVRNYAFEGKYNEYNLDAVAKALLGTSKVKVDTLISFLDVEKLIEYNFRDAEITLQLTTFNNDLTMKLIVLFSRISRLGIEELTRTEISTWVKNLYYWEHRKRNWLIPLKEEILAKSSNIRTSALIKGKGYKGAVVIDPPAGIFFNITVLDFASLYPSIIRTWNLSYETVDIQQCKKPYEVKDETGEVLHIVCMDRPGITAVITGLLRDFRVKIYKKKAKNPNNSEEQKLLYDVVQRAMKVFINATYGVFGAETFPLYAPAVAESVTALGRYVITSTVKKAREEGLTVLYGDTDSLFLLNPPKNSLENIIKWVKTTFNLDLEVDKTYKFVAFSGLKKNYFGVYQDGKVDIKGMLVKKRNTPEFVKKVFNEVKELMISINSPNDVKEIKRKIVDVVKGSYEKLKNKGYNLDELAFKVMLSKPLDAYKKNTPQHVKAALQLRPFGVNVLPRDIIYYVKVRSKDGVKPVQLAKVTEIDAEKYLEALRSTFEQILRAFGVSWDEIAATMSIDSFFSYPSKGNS
Briefly: EMSA.

Series [4] has as its target T1, SsoDpo1 exo- (B-family DNA polymerase 1). Kind of series: fluorescence anisotropy.
Series [5] shares this target. Kind of series: ITC.

Regarding “SsoDpo1 exonuclease mutant (D231A/D318A) (from UniProt P26811 1-882) (enzyme)”, the stoichiometry N in series [1] came to 2.84; in series [2], 3.5.

B1: long p/tDNA 28/66-mer (dsDNA)
DNA 1: CACCTCTCCCTACGCTTCCCACCCACCCCGACCGGCATCTGCTATGGTACGCTGAGCGAGAGTAGC
DNA 2: GCTACTCTCGCTCAGCGTACCATAGCAG
In series [3], B1 displayed a Kd of 0.1 ± 0.01 nM.

B2: Cy5 p/tDNA hairpin (structured_DNA)
DNA: TTTTTTTTTTTTTTTCGAATGGCGCTTTGCCTGGTTTTTACCAGGCAAAGCGCCATTCG
B2: in series [4], the binding result was “binds”.

B3: short p/tDNA 21/31-mer (dsDNA)
DNA 1: GCTGTGCTCTCGCCGCGTGCC
DNA 2: TATCTTCTATGGCACGCGGCGAGAGCACAGC
As for B3, the Kd in series [5] was found to be 1200 ± 100 nM.
